This experiment addresses tau (residues 149-395) labeled with Alexa Fluor 488 at C291 (human) (UniProt P10636). Put plainly: fluorescence correlation spectroscopy.
UniProt P10636, sequence (P10636 466-712 C639S): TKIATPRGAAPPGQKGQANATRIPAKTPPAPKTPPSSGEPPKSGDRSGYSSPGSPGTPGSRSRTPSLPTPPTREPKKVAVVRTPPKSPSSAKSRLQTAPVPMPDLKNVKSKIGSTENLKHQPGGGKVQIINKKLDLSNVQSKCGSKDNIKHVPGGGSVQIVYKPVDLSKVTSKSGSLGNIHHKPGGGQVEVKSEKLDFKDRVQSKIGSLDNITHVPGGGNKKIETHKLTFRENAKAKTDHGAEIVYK

Consider “tailless tubulin (subtilisin-cleaved bovine brain tubulin) (from UniProt Q6B856 1-445) (complex)”, for which the fold weaker affinity than intact tubulin came to 5 fold and the maximum increase in diffusion time of tau stood at 0.15 ms.

The record behind these values is article PMC7176406.
